Laboratory results reported in patent US20210214435A1 (MorphoSys, published 2021).

Columns and labels:
[1] = molecular target: T1, human GPVI (full-length) expressed on stably transfected CHO cells (human, UniProt Q9HCN6 21-339); experiment: Cell ELISA (MSD) on CHO cells expressing GPVI
T1 chain: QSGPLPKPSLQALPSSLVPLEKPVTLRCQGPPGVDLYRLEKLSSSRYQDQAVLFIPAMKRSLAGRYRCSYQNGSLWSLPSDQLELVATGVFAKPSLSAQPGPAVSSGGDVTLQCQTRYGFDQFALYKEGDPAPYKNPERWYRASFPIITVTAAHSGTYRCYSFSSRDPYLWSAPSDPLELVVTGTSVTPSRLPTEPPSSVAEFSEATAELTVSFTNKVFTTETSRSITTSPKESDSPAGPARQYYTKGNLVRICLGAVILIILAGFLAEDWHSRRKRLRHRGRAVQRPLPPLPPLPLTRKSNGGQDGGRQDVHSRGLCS
Description: (§1) CHO cells stably transfected with either human, cynomolgus monkey, or mouse GPVI (SEQ ID NO: 1, SEQ ID NO: 2, SEQ ID NO: 3, respectively and as described in Example 1) were seeded at a density of 5000 cells/well in growth medium on a 96 well high bind plate (Meso Scale Discovery) and cultivated overnight at 37° C. and 5% CO2. Cells were blocked with PBS supplied with 5% BSA and then incubated with Fab (comprising a modified heavy chain constant region) serially diluted to concentrations between 300 nM to 5 pM in PBS supplied with 0.5% BSA. After washing, bound Fab was detected using ECL-conjugated detection antibody directed against human F(ab′)2 fragment (Jackson Immuno Research). MSD read buffer (Meso Scale Discovery) was added to cells prior to readout in a Sector Imager6000 (Meso Scale Discovery). EC50 values were calculated using Prism 5 software (GraphPad).

[2] = molecular target: T2, cynomolgus monkey GPVI (full-length) expressed on stably transfected CHO cells (cynomolgus monkey, UniProt Q9HCN6 21-339 (human entry)); experiment: Cell ELISA (MSD) on CHO cells expressing GPVI
T2 chain: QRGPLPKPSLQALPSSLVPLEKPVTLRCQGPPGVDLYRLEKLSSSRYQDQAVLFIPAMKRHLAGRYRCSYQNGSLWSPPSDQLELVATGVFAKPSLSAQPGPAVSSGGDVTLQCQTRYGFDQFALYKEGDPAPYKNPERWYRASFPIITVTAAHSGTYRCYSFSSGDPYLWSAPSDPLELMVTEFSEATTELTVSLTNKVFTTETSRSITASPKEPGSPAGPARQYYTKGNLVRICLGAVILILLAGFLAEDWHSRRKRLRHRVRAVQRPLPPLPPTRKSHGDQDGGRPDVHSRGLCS
Description: as §1

[3] = molecular target: T3, mouse GPVI extracellular domain fused at its C-terminus to human IgG1 Fc (GPVI-Fc) (mouse; human); experiment: Competition ELISA (MSD): mouse GPVI-Fc preincubated with Fab, then on coated VitroCol (competitor)
T3 construct: also called mGPVI; mouse GPVI-Fc
Description: (§2) 1 or 10 μg/ml of recombinant GPVI collagen substrate (crosslinked collagen-related peptide (CRP-XL (Anaspec, Inc.), rat-tail collagen (Enzo Life Sciences) or VitroCol (Advanced BioMatrix, Inc.) was coated on a MSD-plate over night at 4° C., washed with PBST, blocked for 1 h at RT with PBS supplemented with 0.05% Tween-20 and 3% skim milk powder, and subsequently washed again with PBST. Purified recombinant GPVI antigens (human, cynomolgus monkey or mouse GPVI as prepared in Example 1) diluted in PBS and varying concentrations of Fab (comprising a modified heavy chain constant region) diluted in PBS (final concentration range 200-0.3 μg/ml) were incubated in a polypropylene plate for 30 min at RT. Fab/GPVI-Fc mixture was added to coated collagen substrate for 1 h at RT. After washing with PBST, bound GPVI form different species was detected using an ECL-conjugated detection antibody directed against human Fc (Jackson Immuno Research) for 1 h at RT. MSD read buffer (Meso Scale Discovery) was added prior to readout in a Sector Imager6000 (Meso Scale Discovery).

[4] = molecular target: T4, cynomolgus monkey GPVI extracellular domain fused at its C-terminus to human IgG1 Fc (GPVI-Fc) (cynomolgus monkey; human); experiment: Competition ELISA (MSD): cynomolgus GPVI-Fc preincubated with Fab, then on coated rat-tail collagen (competitor)
T4 construct: also called cyGPVI-2; cyGPVI
Description: as §2

[5] = molecular target: T4, cynomolgus monkey GPVI extracellular …; experiment: Competition ELISA (MSD): cynomolgus GPVI-Fc preincubated with Fab, then on coated CRP-XL (competitor)
Description: as §2

[6] = molecular target: T4, cynomolgus monkey GPVI extracellular …; experiment: Competition ELISA (MSD): cynomolgus GPVI-Fc preincubated with Fab, then on coated VitroCol (competitor)
Description: as §2

[7] = molecular target: T5, mouse GPVI (full-length) expressed on stably transfected CHO cells (mouse, UniProt P0C191 22-313); experiment: Cell ELISA (MSD) on CHO cells expressing GPVI
T5 sequence: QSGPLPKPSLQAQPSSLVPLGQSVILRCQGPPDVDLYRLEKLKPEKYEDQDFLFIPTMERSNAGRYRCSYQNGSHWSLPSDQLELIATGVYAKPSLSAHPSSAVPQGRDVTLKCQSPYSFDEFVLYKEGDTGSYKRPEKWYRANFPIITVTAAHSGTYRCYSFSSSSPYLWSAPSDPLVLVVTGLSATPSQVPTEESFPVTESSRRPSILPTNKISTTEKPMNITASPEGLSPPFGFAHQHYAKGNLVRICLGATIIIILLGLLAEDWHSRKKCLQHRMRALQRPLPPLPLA
Description: as §1

[8] = molecular target: T3, mouse GPVI extracellular domain fused …; experiment: ELISA, coated GPVI-Fc, Fab titrated
Description: 0.5-2 nM of recombinant GPVI-Fc-fusion proteins (as described in Example 1) were coated overnight on Maxisorp microtiter plates at 4° C. […] Following washing with PBST, Fabs (comprising a modified heavy chain constant region) serially diluted to concentrations in the range of 600 nM to 1 pM in PBST with 5% skim milk powder (MPBST) were added for 1 h at RT. Plates were washed with PBST. Bound Fab was detected using an alkaline phosphatase-conjugated detection antibody (Jackson Immuno Research) diluted in MPBST and directed against human F(ab′)2 fragment. After washing with TBS supplemented with 0.05% Tween-20 (TBST), AttoPhos substrate (Roche) diluted in ddH2O was added and fluorescence intensity measured at a Tecan Infinite 200Pro reader. EC50 values were calculated using Prism 5 software (GraphPad).

B1: Fab #1 comprising a modified heavy chain constant region (Fab, V domains shown)
VH: QVQLVQSGAEVKKPGASVKVSCKASGYTFTSHYMHWVRQAPGQGLEWMGLIEPSEGETEYAQRFQGRVTMTRDTSTSTVYMELSSLRSEDTAVYYCARDSSRSYPLGFDIWGQGTLVTVSS
VL: QSVLTQPPSVSAAPGQKVTISCSGSSSNIGNNYVSWYQQLPGTAPKLLIYDNNKRPSGIPDRFSGSKSGTSATLGITGLQTEDEADYYCAAWDFRSSRWVFGGGTKLTVLG
notes: Human Fab from the Ylanthia library; produced in HKB11 cells; also called Fab #1 mod; HC
EC50 [1]: 0.89 nM | EC50 [2]: 0.74 nM | IC50 [3]: 9.1 nM | Max. inhibition at 200 nM Fab [%] [3]: 96% | IC50 [4]: 9.6 nM | Max. inhibition at 200 nM Fab [%] [4]: 86% | IC50 [5]: 11.5 nM | Max. inhibition at 200 nM Fab [%] [5]: 59% | IC50 [6]: 9.7 nM | Max. inhibition at 200 nM Fab [%] [6]: 84%

B2: Fab #4 comprising a modified heavy chain constant region (Fab, V domains shown)
VH: QVQLVQSGAEVKKPGASVKVSCKASGGAFTSSYMHWVRQAPGQGLEWMGIIEPTGASTLYAQRFQGRVTMTRDTSTSTVYMELSSLRSEDTAVYYCARTGIALPLGFDLWGQGTLVTVSS
VL: QSVLTQPPSVSAAPGQKVTISCSGSSSNIGNNYVSWYQQLPGTAPKLLIYDNNKRPSGIPDRFSGSKSGTSATLGITGLQTEDEADYYCAAWSTRFRWVFGGGTKLTVLG
notes: Human Fab from the Ylanthia library; produced in HKB11 cells; also called Fab #4 mod; HC
EC50 [1]: 0.78 nM | EC50 [2]: 0.8 nM | EC50 [7]: 0.93 nM | IC50 [3]: 6.7 nM | Max. inhibition at 200 nM Fab [%] [3]: 94% | EC50 [8]: 1 nM | IC50 [4]: 9.1 nM | Max. inhibition at 200 nM Fab [%] [4]: 83% | IC50 [5]: 11.3 nM | Max. inhibition at 200 nM Fab [%] [5]: 51% | IC50 [6]: 8.1 nM | Max. inhibition at 200 nM Fab [%] [6]: 91%

B3: Fab #2 comprising a modified heavy chain constant region (Fab, V domains shown)
VH: QVQLVESGGGLVKPGGSLRLSCAASGFSFSDHYMSWIRQAPGKGLEWVSSVGSEGKFIDYAASVKGRFTISRDNAKNSLYLQMNSLRAEDTAVYYCARHYREFRWHYYYFDYWGQGTLVTVSS
VL: QSVLTQPPSVSGAPGQRVTISCTGSSSNIGAGYDVHWYQQLPGTAPKLLIYGNSNRPSGVPDRFSGSKSGTSASLAITGLQAEDEADYYCQSHDLGAHVWVFGGGTKLTVLG
notes: Human Fab from the Ylanthia library; produced in HKB11 cells; also called Fab #2 mod; HC
EC50 [1]: 0.78 nM | EC50 [2]: 1.06 nM | EC50 [7]: 8.28 nM | IC50 [3]: 4.3 nM | Max. inhibition at 200 nM Fab [%] [3]: 99% | EC50 [8]: 6.55 nM | IC50 [4]: 7.1 nM | Max. inhibition at 200 nM Fab [%] [4]: 100% | IC50 [5]: 7.9 nM | Max. inhibition at 200 nM Fab [%] [5]: 100% | IC50 [6]: 4.3 nM | Max. inhibition at 200 nM Fab [%] [6]: 100%

B4: Fab #3 comprising a modified heavy chain constant region (Fab, V domains shown)
VH: QVQLVESGGGLVKPGGSLRLSCAASGFSFGDYYVSWIRQAPGKGLEWVSAIGGSGSAVQYAESVKGRFTISRDNAKNSLYLQMNSLRAEDTAVYYCARHYREFRWHYYYFDYWGQGTLVTVSS
VL: QSVLTQPPSVSGAPGQRVTISCTGSSSNIGAGYDVHWYQQLPGTAPKLLIYGNSNRPSGVPDRFSGSKSGTSASLAITGLQAEDEADYYCQSHDLGAHVWVFGGGTKLTVLG
notes: Human Fab from the Ylanthia library; produced in HKB11 cells; also called Fab #3 mod; HC
EC50 [1]: 0.77 nM | EC50 [2]: 1.06 nM | EC50 [7]: 3.74 nM | IC50 [3]: 3.3 nM | Max. inhibition at 200 nM Fab [%] [3]: 100% | EC50 [8]: 1.36 nM | IC50 [4]: 7.6 nM | Max. inhibition at 200 nM Fab [%] [4]: 99% | IC50 [5]: 9.1 nM | Max. inhibition at 200 nM Fab [%] [5]: 100% | IC50 [6]: 4.7 nM | Max. inhibition at 200 nM Fab [%] [6]: 100%

B5: Reference Control Antibody RefFab #1 (humanized GPVI antibody of WO2011073954A2, SANOFI) (Fab, V domains shown)
VH: EVQLLESGPGLVAPSGSLSITCTVSGFSLTGYGVNWVRQPPGKGLEWLGMIWGDGSTDYQSTLKSRLSISKDNSKSQVFLKMNSLRTDDTARYYCARDLPMDYWGLGTSVTVSS
VL: DIQMTQSPSSLSASVGGRVTITCKASQDINKYIAWYQHKPGKGPSLLIHYTSTLQPGVPSRFSGSGSGRDYSFSISNLQPEDIATYYCLQYANLLTFGGGTKLEIKR
notes: Cloned into mammalian Fab expression vectors; a glycine-serine linker (G4S)2 was added to the C-terminus of the Fab heavy chain
EC50 [1]: 2.8 nM | EC50 [2]: 2.09 nM | IC50 [4]: 8.8 nM | Max. inhibition at 200 nM Fab [%] [4]: 99% | IC50 [5]: 9.5 nM | Max. inhibition at 200 nM Fab [%] [5]: 100% | IC50 [6]: 5.5 nM | Max. inhibition at 200 nM Fab [%] [6]: 100%
